Paper PMC11984393

Biological target: CD8 (T-cell surface marker) (Mus musculus) (UniProt P01731)
Assay: flow cytometry
Conditions: 30 min, live-cell binding, 30 min incubation, buffer, salt, pH and temperature not given in the material

UniProt P01731, sequence (P01731 whole entry): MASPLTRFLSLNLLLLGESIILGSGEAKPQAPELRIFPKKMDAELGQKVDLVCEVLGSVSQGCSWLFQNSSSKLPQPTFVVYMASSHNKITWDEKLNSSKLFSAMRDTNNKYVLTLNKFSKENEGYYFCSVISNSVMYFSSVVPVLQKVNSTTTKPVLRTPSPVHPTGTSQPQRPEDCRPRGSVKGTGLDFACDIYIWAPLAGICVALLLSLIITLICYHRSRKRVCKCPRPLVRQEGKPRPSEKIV

Sequence	binding signal (% positive cells) (negative control)	binding signal (% positive cells)
TTTTTAAGTAATGTATTTAAATTGCGAACTACTACTCTCTCTATATATTGCGAACTACTACTCTCTCTATATTAAAGGAAGGATCTCA [Apt-random-FAM]	0.74	
TTTTTTTTTTCCAGAGTGACGCAGCAACAGAGGTGTAGAAGTACACGTGAACAAGCTTGAAATTGTCTCCGACAGAGGTGGACACGGTGGCTTTTAGT [Apt-CD8-FAM]		44.4
